This passage reports optical density results from US20210380703A1 (RIGEL PHARMACEUTICALS, published 2021).

The target in experiment [1] is human ACVR2A (human, UniProt P27037 20-135, limits assumed). Nature of the experiment: ELISA. The gist of the method:
(§1)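 ELISA measured binding of ACVR2A-specific monoclonal antibodies to human and mouse ACVR2A. Biotinylated goat anti-human kappa light chain served as positive control and human Fc as negative control.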
In general terms: In an ELISA, binding on a coated surface is turned into a signal by an enzyme label.

Experiment [2] deals with mouse ACVR2A (mouse, UniProt P27038 20-135, limits assumed). Kind of experiment: ELISA. The gist of the method:
as §1

Experiment [3] concerns the target T1, biotinylated goat anti-human kappa light chain.
T1 construct: Positive control of the ELISA
Kind of experiment: ELISA; positive control. The gist of the method:
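Monoclonal antibodies were first applied to human or mouse ACVR2A, alongside biotinylated goat anti-human kappa light chain (positive control) and human Fc (negative control); binding was then determined by ELISA.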
Further: test concentration or dose not given here.

Chain of human ACVR2A (P27037 20-135 limits assumed): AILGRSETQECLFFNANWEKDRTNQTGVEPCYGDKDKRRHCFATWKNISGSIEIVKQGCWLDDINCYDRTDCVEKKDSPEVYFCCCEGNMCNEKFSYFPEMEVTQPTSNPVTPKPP
Chain of mouse ACVR2A (P27038 20-135 limits assumed): as the sequence (P27037 20-135 limits assumed) above, with K20R, V73I counted along it

B1: 373_B11 (antibody, V domains shown)
VH: EVQLLESGGGLVQPGGSLRLSCAASGFTFSSYSMNWVRQAPGKGLEWVANINYNSGYKGYADSVKGRFTISRDNSKNTLYLQMNSLRAEDTAVYYCARSATWHDTHLDYWGQGTLVTVSS
VL: DIQMTQSPSSLSASVGDRVTITCRASQSILSYLNWYQQKPGKAPKLLIYAATSRASGVPSRFSGSGSGTDFTLTISSLQPEDFATYYCQQSYDNPLTFGGGTKVEIK
notes: VH/VL only
As for B1, the results for the optical density in experiment [1], in experiment [2] and in experiment [3] were 3.72 OD, 3.65 OD and 3.22 OD, respectively.

B2: 373_H10 (antibody, V domains shown)
VH: EVQLLESGGGLVQPGGSLRLSCAASGFTFSSYSMNWVRQAPGKGLEWVAGINYNGGYTGYADSVKGRFTISRDNSKNTLYLQMNSLRAEDTAVYYCARSATWHDTHLDYWGQGTLVTVSS
VL: DIQMTQSPSSLSASVGDRVTITCRASQSILSYVNWYQQKPGKAPKLLIYAATSRASGVPSRFSGSGSGTDFTLTISSLQPEDFATYYCQQSYSLPLTFGGGTKVEIK
notes: VH/VL only
As for B2, the figures for the optical density in experiment [1], in experiment [2] and in experiment [3] were 3.24 OD, 3.25 OD and 3.19 OD, respectively.

B3: 374_D02 (antibody, V domains shown)
VH: EVQLLESGGGLVQPGGSLRLSCAASGFTFDSYSMNWVRQAPGKGLEWVAGINYNSGYTSYADSVKGRFTISRDNSKNTLYLQMNSLRAEDTAVYYCARSATWHDTHLDYWGQGTLVTVSS
VL: DIQMTQSPSSLSASVGDRVTITCRASQSISTYVNWYQQKPGKAPKLLIYAVTSLASGVPSRFSGSGSGTDFTLTISSLQPEDFATYYCQQSYDSPLTFGGGTKVEIK
notes: VH/VL only
Regarding B3, the values for the optical density in experiment [1], in experiment [2] and in experiment [3] were 3.06 OD, 3.2 OD and 2.99 OD, respectively.

B4: 374_C02 (antibody, V domains shown)
VH: EVQLLESGGGLVQPGGSLRLSCAASGFTFDSYSMNWVRQAPGKGLEWVSGINYNGGYTGYADSVKGRFTISRDNSKNTLYLQMNSLRAEDTAVYYCARSATWHDTHLDYWGQGTLVTVSS
VL: DIQMTQSPSSLSASVGDRVTITCRASQSILSYLNWYQQKPGKAPKLLIYAATSRHSGVPSRFSGSGSGTDFTLTISSLQPEDFATYYCQQSYDSPLTFGGGTKVEIK
notes: VH/VL only
On to B4, for which the optical density in experiment [1] amounted to 3.68 OD; in experiment [2] it was 3.64 OD; in experiment [3], 3.06 OD.

B5: 373_E04 (antibody, V domains shown)
VH: EVQLLESGGGLVQPGGSLRLSCAASGFTFDSYSMNWVRQAPGKGLEWVAGINYNGGYTSYADSVKGRFTISRDNSKNTLYLQMNSLRAEDTAVYYCARSATWHDTHLDYWGQGTLVTVSS
VL: DIQMTQSPSSLSASVGDRVTITCRASQSILTYVNWYQQKPGKAPKLLIYAATSRASGVPSRFSGSGSGTDFTLTISSLQPEDFATYYCQQSYNSPLTFGGGTKVEIK
notes: VH/VL only
B5: the values for the optical density in experiment [1], in experiment [2] and in experiment [3] were 3.56 OD, 3.55 OD and 3.3 OD, respectively.

B6: 373_F03 (antibody, V domains shown)
VH: EVQLLESGGGLVQPGGSLRLSCAASGFTFDSYSMNWVRQAPGKGLEWVANINYNSGYTGYADSVKGRFTISRDNSKNTLYLQMNSLRAEDTAVYYCARSATWHDTHLDYWGQGTLVTVSS
VL: DIQMTQSPSSLSASVGDRVTITCRASQSILTYVNWYQQKPGKAPKLLIYAATSRHSGVPSRFSGSGSGTDFTLTISSLQPEDFATYYCQQSYDSPLTFGGGTKVEIK
notes: VH/VL only
For the molecule B6, the optical density in experiment [1] came out at 3.65 OD; in experiment [2], 3.6 OD; in experiment [3] it was 3.21 OD.

B7: 373_H06 (antibody, V domains shown)
VH: EVQLLESGGGLVQPGGSLRLSCAASGFTFSSYGMHWVRQAPGKGLEWVAGINYNGGYTSYADSVKGRFTISRDNSKNTLYLQMNSLRAEDTAVYYCARSATWHDTHLDYWGQGTLVTVSS
VL: DIQMTQSPSSLSASVGDRVTITCRASQSIISYVNWYQQKPGKAPKLLIYAATSLASGVPSRFSGSGSGTDFTLTISSLQPEDFATYYCQQSYDLPLTFGGGTKVEIK
notes: VH/VL only
Regarding B7, the figures for the optical density in experiment [1], in experiment [2] and in experiment [3] were 3 OD, 3.15 OD and 3.3 OD, respectively.

B8: 374_C11 (antibody, V domains shown)
VH: EVQLLESGGGLVQPGGSLRLSCAASGFTFSSYSMNWVRQAPGKGLEWVAGINYNSGYKGYADSVKGRFTISRDNSKNTLYLQMNSLRAEDTAVYYCARSATWHDTHLDYWGQGTLVTVSS
VL: DIQMTQSPSSLSASVGDRVTITCRASQSILTYLNWYQQKPGKAPKLLIYAATSRASGVPSRFSGSGSGTDFTLTISSLQPEDFATYYCQQSYESPLTFGGGTKVEIK
notes: VH/VL only
Take B8: the values for the optical density in experiment [1], in experiment [2] and in experiment [3] were 3.64 OD, 3.59 OD and 3.21 OD, respectively.

B9: 374_C08 (antibody, V domains shown)
VH: EVQLLESGGGLVQPGGSLRLSCAASGFTFDSYGMNWVRQAPGKGLEWVSGINYNSGYKSYADSVKGRFTISRDNSKNTLYLQMNSLRAEDTAVYYCARSATWHDTALDYWGQGTLVTVSS
VL: DIQMTQSPSSLSASVGDRVTITCRASQSILSYVNWYQQKPGKAPKLLIYAVTSRASGVPSRFSGSGSGTDFTLTISSLQPEDFATYYCQQSYDSPLTFGGGTKVEIK
notes: VH/VL only
As to B9, the values for the optical density in experiment [1], in experiment [2] and in experiment [3] were 3.29 OD, 3.42 OD and 3.18 OD, respectively.

B10: 374_C05 (antibody, V domains shown)
VH: EVQLLESGGGLVQPGGSLRLSCAASGFTFDSYSMNWVRQAPGKGLEWVAGINYNSGYKSYADSVKGRFTISRDNSKNTLYLQMNSLRAEDTAVYYCARSATWHDTHLDYWGQGTLVTVSS
VL: DIQMTQSPSSLSASVGDRVTITCRASQSIIRYLNWYQQKPGKAPKLVIYAATSRASGVPSRFSGSGSGTDFTLTISSLQPEDFATYYCQQSYDNPLTFGGGTKVEIK
notes: VH/VL only
For the molecule B10, the optical density in experiment [1] is 3.7 OD; in experiment [2], 3.69 OD; in experiment [3], 3.18 OD.

B11: 373_G05 (antibody, V domains shown)
VH: EVQLLESGGGLVQPGGSLRLSCAASGFTFSSYSMNWVRQAPGKGLEWVAGINYNGGYTSYADSVKGRFTISRDNSKNTLYLQMNSLRAEDTAVYYCARSATWHDTHLDYWGQGTLVTVSS
VL: DIQMTQSPSSLSASVGDRVTITCRASQSILSYLNWYQQKPGKAPKLLIYAATSLASGVPSRFSGSGSGTDFTLTISSLQPEDFATYYCQQSYELPLTFGGGTKVEIK
notes: VH/VL only
For B11, the optical density in experiment [1] turned out to be 3.61 OD; in experiment [2] it was 3.62 OD; in experiment [3] it was 3.22 OD.

B12: 374_C04 (antibody, V domains shown)
VH: EVQLLESGGGLVQPGGSLRLSCAASGFTFSSYSMNWVRQAPGKGLEWVAGINYNSGYKSYADSVKGRFTISRDNSKNTLYLQMNSLRAEDTAVYYCARSATWHDTHLDYWGQGTLVTVSS
VL: DIQMTQSPSSLSASVGDRVTITCRASQSILTYLNWYQQKPGKAPKLLIYAASSLQSGVPSRFSGSGSGTDFTLTISSLQPEDFATYYCQQSYELPLTFGGGTKVEIK
notes: VH/VL only
Turning to B12, the optical density in experiment [1] is 3.74 OD; in experiment [2] it was 3.74 OD; in experiment [3] it was 3.17 OD.

B13: 374_A11 (antibody, V domains shown)
VH: EVQLLESGGGLVQPGGSLRLSCAASGFTFSDYSMNWVRQAPGKGLEWVANINYNSGYKGYADSVKGRFTISRDNSKNTLYLQMNSLRAEDTAVYYCARSATWHDTHLDYWGQGTLVTVSS
VL: DIQMTQSPSSLSASVGDRVTITCRASQSILSYVNWYQQKPGKAPKLVIYAATSRASGVPSRFSGSGSGTDFTLTISSLQPEDFATYYCQQSYSSPLTFGGGTKVEIK
notes: VH/VL only
Take B13: the optical density is 3.65 OD in experiment [1], 3.72 OD in experiment [2] and 2.81 OD in experiment [3].

B14: 373_E03 (antibody, V domains shown)
VH: EVQLLESGGGLVQPGGSLRLSCAASGFTFDSYGMNWVRQAPGKGLEWVSNINYNGGYTGYADSVKGRFTISRDNSKNTLYLQMNSLRAEDTAVYYCARSATWHDTALDYWGQGTLVTVSS
VL: DIQMTQSPSSLSASVGDRVTITCRASQSILSYVNWYQQKPGKAPKLVIYAATSRASGVPSRFSGSGSGTDFTLTISSLQPEDFATYYCQQSYDLPLTFGGGTKVEIK
notes: VH/VL only
For the molecule B14, the values for the optical density in experiment [1], in experiment [2] and in experiment [3] were 3.46 OD, 3.46 OD and 3.25 OD, respectively.

B15: 373_E06 (antibody, V domains shown)
VH: EVQLLESGGGLVQPGGSLRLSCAASGFTFDSYSMNWVRQAPGKGLEWVAGINYNSGYKSYADSVKGRFTISRDNSKNTLYLQMNSLRAEDTAVYYCARSATWHDTHLDYWGQGTLVTVSS
VL: DIQMTQSPSSLSASVGDRVTITCRASQSILRYLNWYQQKPGKAPKLLIYAATSLHSGVPSRFSGSGSGTDFTLTISSLQPEDFATYYCQQSYDNPLTFGGGTKVEIK
notes: VH/VL only
Consider B15, for which the optical density was determined as 3.71 OD in experiment [1], 3.64 OD in experiment [2] and 3.22 OD in experiment [3].

B16: 374_B09 (antibody, V domains shown)
VH: EVQLLESGGGLVQPGGSLRLSCAASGFTFSSYSMNWVRQAPGKGLEWVSGINYNGGYKSYADSVKGRFTISRDNSKNTLYLQMNSLRAEDTAVYYCARSATWHDTHLDYWGQGTLVTVSS
VL: DIQMTQSPSSLSASVGDRVTITCRASQSIVRYLNWYQQKPGKAPKLVIYAATSLASGVPSRFSGSGSGTDFTLTISSLQPEDFATYYCQQSYELPLTFGGGTKVEIK
notes: VH/VL only
Turning to B16, the optical density in experiment [1] was 3.62 OD; in experiment [2], 3.65 OD; in experiment [3], 3.19 OD.

B17: 373_E02 (antibody, V domains shown)
VH: EVQLLESGGGLVQPGGSLRLSCAASGFTFDSYGMHWVRQAPGKGLEWVSGINYNGGYKGYADSVKGRFTISRDNSKNTLYLQMNSLRAEDTAVYYCARSATWHDTHLDYWGQGTLVTVSS
VL: not shown
notes: VH/VL only
As for B17, the optical density is 3.61 OD in experiment [1], 3.64 OD in experiment [2] and 2.92 OD in experiment [3].

B18: 373_C09 (antibody, V domains shown)
VH: EVQLLESGGGLVQPGGSLRLSCAASGFTFDSYSMNWVRQAPGKGLEWVAGINYNSGYKSYADSVKGRFTISRDNSKNTLYLQMNSLRAEDTAVYYCARSATWHDTHLDYWGQGTLVTVSS
VL: DIQMTQSPSSLSASVGDRVTITCRASQSILTYLNWYQQKPGKAPKLVIYAATSRASGVPSRFSGSGSGTDFTLTISSLQPEDFATYYCQQSYELPLTFGGGTKVEIK
notes: VH/VL only
Turning to B18, the optical density in experiment [1] worked out at 3.64 OD; in experiment [2], 3.6 OD; in experiment [3], 3.22 OD.
